Results from paper PMC4222533.
pKd: −log10 of the molar value.

What was measured:
[1] = target: skelemin tandem IgC2 domains 4 and 5 with the interconnecting linker, C1354S (mouse); assay: ITC
[2] = target: integrin β3 cytoplasmic tail (UniProt P05106); assay: ITC
Chain of integrin β3 cytoplasmic tail (P05106 742-788): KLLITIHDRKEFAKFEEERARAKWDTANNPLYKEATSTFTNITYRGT

dH [1]: -1.6 kJ/mol
stoichiometry N [1]: 1.26
pKd [2]: 5.24
Substance: integrin αIIb cytoplasmic tail peptide (starting from W988)
